Reference: US20230104769A1 (MABWELL SHANGHAI BIOSCIENCE, published 2023)

Tests used:
[1] = target: T1, recombinant human PD-1 protein (NCBI accession No.: NP_005009.2, 21aa-167aa) (human, UniProt Q15116 21-167); assay: BLI (Octet QKe), biotin-labelled antibody on streptavidin sensor, PD-1 100 nM-12.5 nM
T1 construct: range 21-167; also called recombinant human PD-1 extracellular domain protein; PD-1-ECD
Description: Determination of the binding kinetics: the affinity of the antibody was determined with Octet QKe system from Fortebio using an assay of capturing biotin-labeled antibody with streptavidin. […] Both the binding and dissociating were conducted for 300 s.

[2] = target: T2, rat PD-1 (Cat: 80448-R08H, Sino Biological Inc.) (rat, UniProt D3ZIN8 25-169); assay: ELISA, plate coated with the PD-1 protein at 1 µg/mL, biotinylated h317, HRP-streptavidin
T2 construct: Bought recombinant protein; also called recombinant rat PD-1; not shown: The vendor's tag
T2 sequence: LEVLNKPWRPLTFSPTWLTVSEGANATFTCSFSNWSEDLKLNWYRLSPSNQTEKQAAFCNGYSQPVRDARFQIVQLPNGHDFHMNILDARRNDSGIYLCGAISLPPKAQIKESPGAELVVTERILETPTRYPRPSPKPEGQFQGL
Description: (§1) The plates were washed three times with PBS subsequently, and 5% BSA-PBS was added for blocking for 60 min at 37° C. […] Again, the plates were washed four times with PBST, then HRP-streptavidin (Cat: 019-035-098, Jackson immuno Research) with a dilution of 1:100 was added for a 30 min incubation at 37° C. Once again, the plates were washed four times with PBST, and TMB substrate was added for developing color through incubating for 10 min at 37° C., then the reaction was terminated by adding 2 M HCl. With 630 nm as reference wavelength, the absorbance at a wavelength of 450 nm (A450 nm-630 nm) of each well in the plates was read and recorded.

[3] = target: T3, mouse PD-1 (Cat: 50124-M08H, Sino Biological Inc.) (mouse, UniProt Q02242 25-167); assay: as above
T3 construct: Bought recombinant protein; also called recombinant mouse PD-1
T3 sequence (looked up): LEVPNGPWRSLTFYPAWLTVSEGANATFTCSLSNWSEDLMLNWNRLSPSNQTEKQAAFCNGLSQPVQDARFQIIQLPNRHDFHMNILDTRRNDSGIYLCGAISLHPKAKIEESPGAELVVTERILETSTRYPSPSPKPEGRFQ
Description: as §1

[4] = target: T4, N74A; assay: flow cytometry on transfected HEK293 cells, antibody 2 µg/ml, goat anti-human IgG(Fc)-Cy5; no negative-control bar is drawn
T4 construct: also called full-length human PD-1 N74A expressed on HEK293 cells; PD-1-mut N74A; not shown: EGFP of the expression vector, if it is fused to PD-1
T4 sequence (chain, as listed by the source N74A N74A limits assumed): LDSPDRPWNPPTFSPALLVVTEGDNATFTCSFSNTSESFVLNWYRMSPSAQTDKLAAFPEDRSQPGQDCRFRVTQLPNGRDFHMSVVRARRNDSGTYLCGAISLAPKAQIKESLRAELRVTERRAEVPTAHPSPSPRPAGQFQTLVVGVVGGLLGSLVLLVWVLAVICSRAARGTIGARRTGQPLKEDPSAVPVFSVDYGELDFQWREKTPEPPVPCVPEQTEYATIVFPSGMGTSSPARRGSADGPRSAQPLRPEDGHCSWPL
Description: (§2) The mutants obtained were inserted into an expression vector carrying EGFP to construct five plasmids expressing full-length human PD-1 (WT, N49A, N58A., N116A, N74A). […] 2 days after the transfection, the cells were collected to a 96-well plate, centrifuged at 1500 rpm for 2 minutes, and the supernatants in the wells were discarded. […] The working concentration of the primary antibodies was 2 μg/ml, and cells without primary antibodies added were used as negative controls. The mixtures obtained were centrifuged at 1500 rpm for 2 minutes, and supernatants were discarded. The cells in each well were resuspended by adding 200 μl PBS and the suspensions obtained were then centrifuged at 1500 rpm for 2 minutes, then supernatants were discarded. Later, the obtained cells were incubated with 200 μl goat anti-human IgG(Fc)-Cy5 (Cat: 12136, Lot: 017M4800V, Sigma) diluted with 5% BSA added into each well for 1 h at room temperature, then centrifuged at 1500 rpm for 2 minutes, and supernatants were discarded. The cells were resuspended by adding 200 μl PBS and the suspensions obtained were then centrifuged at 1500 rpm for 2 minutes, then supernatants were discarded. The cells again were resuspended by adding 200 μl PBS thereto and detected by flow cytometry (B49007AD, SNAW31211).

[5] = target: T1, recombinant human PD-1 protein (NCBI …); assay: ELISA, plate coated with the protein at 1 µg/mL, biotinylated h317, HRP-streptavidin
Description: as §1, with “Immuno” for “immuno”

[6] = target: CTLA4 (Cat: 11159-H08H, Sino Biological Inc.) (human, UniProt P16410 36-162); assay: as above
CTLA4 (Cat: 11159-H08H, Sino Biological Inc.), sequence (P16410 36-162 limits assumed): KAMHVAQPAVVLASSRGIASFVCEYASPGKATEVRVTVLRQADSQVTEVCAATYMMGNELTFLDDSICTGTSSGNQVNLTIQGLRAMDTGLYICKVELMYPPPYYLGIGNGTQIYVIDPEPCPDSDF
Description: as §1, with “Immuno” for “immuno”

[7] = target: CD28 (Cat: 11524-HCCH, Sino Biological Inc.) (human, UniProt P10747 19-152); assay: as above
Description: as §1, with “Immuno” for “immuno”

[8] = target: T5, cynomolgus monkey PD-1 (Cat: 90311-C08H, Sino Biological Inc.) (cynomolgus monkey, UniProt B0LAJ3 25-170); assay: ELISA, biotinylated h317 on plate-bound PD-1
T5 construct: Bought recombinant protein; not shown: The vendor's tag
T5 sequence (B0LAJ3 entry or part of it C08H C08H limits assumed): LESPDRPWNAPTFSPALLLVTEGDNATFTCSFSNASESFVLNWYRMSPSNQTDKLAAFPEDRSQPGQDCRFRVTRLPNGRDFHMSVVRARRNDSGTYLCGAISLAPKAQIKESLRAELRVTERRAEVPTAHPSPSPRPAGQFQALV
Description: as §1

[9] = target: T1, recombinant human PD-1 protein (NCBI …); assay: ELISA, biotinylated h317 on plate-bound PD-1
Description: as §1

[10] = target: T6, full-length human PD-1 N58A expressed on HEK293 cells (human, UniProt Q15116 25-288); assay: flow cytometry on transfected HEK293 cells
T6 construct: whole, on cells; Expression vector carries EGFP; the mutation removes the N-glycosylation site; also called PD-1-mut N58A
T6 sequence (Q15116 25-288 N58A): as the sequence (chain, as listed by the source N74A N74A limits assumed) above, with N34A, A50N counted along it
Description: as §2

T1 sequence (Q15116 21-167 limits assumed, form in doubt): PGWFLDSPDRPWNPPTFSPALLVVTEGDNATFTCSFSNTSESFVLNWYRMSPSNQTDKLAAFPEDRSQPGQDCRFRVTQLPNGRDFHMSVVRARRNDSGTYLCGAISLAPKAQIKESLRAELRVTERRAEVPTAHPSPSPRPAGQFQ

B1: h317 (humanized anti-human PD-1 antibody) (antibody, V domains shown)
VH: EVQLVESGGGLVKPGGSLRLSCAASGFTFSSYDMSWVRQAPGKGLEWVATISGGGSYTYYPDSVKGRFTISRDNAKNSLYLQMNSLRAEDTAVYYCASPDSSGVAYWGQGTLVTVSS
VL: DIVMTQSPLSLPVTPGEPASITCKASQDVETVVAWYLQKPGQSPRLLIYWASTRHTGVPDRFSGSGSGTDFTLKISRVEAEDVGVYYCQQYSRYPWTFGQGTKL
notes: also called h317-biotin; biotinylated h317
Kd [1]: 6.16 nM | koff [1]: 0.00095 s⁻¹ | kon [1]: 154000 M⁻¹ s⁻¹ | binding result [2]: no binding (tested: 1 nM (log(nM) 0 on the axis)) | binding result [3]: no binding (tested: 1 nM (log(nM) 0 on the axis)) | binding result [4]: binds | EC50 (read off the curve) [5]: ~0.001 nM | binding result [6]: no binding (tested: 1 nM (log(nM) 0 on the axis)) | binding result [7]: no binding (tested: 1 nM (log(nM) 0 on the axis)) | EC50 [8]: 0.0182 nM | EC50 [9]: 0.0047 nM | binding result [10]: no binding (tested: 2 µg/ml)
